One test concerns the target cMet-Fc fusion protein (Homo sapiens, UniProt P08581). Kind of test: Protein phage ELISA: peptide-displaying phage binding to soluble cMet-Fc versus TRAIL-Fc. As to conditions: phage isolate; cMet-Fc vs. TRAIL-Fc. Put shortly:
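Plates coated with 0.5 μg/mL cMet-Fc or, as background, TRAIL-Fc, then blocked with 3% BSA in PBST. Peptide-displaying phage bound 2 h at room temperature. Detection with HRP-anti-M13 antibody.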

Test [1] addresses T1, 3T3 cells that over-express human cMet (Homo sapiens, UniProt P08581).
T1 construct: expressed in transfected cells; host or cells: 3T3 cells
Kind of test: Whole cell ELISA of peptide-displaying phage. The class given is cell-based. As to conditions: phage isolate; 3T3 cells expressing human cMet vs. non-expressing 3T3 cells. In outline: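 3T3 cells over-expressing human cMet seeded 10^5/well, pelleted and fixed with 0.1% glutaraldehyde 12 min at 37 °C. Blocked peptide-displaying phage bound 1 h at room temperature; after PBST wash, bound phage detected with HRP-conjugated anti-M13 antibody.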

T1 sequence (P08581 25-1390): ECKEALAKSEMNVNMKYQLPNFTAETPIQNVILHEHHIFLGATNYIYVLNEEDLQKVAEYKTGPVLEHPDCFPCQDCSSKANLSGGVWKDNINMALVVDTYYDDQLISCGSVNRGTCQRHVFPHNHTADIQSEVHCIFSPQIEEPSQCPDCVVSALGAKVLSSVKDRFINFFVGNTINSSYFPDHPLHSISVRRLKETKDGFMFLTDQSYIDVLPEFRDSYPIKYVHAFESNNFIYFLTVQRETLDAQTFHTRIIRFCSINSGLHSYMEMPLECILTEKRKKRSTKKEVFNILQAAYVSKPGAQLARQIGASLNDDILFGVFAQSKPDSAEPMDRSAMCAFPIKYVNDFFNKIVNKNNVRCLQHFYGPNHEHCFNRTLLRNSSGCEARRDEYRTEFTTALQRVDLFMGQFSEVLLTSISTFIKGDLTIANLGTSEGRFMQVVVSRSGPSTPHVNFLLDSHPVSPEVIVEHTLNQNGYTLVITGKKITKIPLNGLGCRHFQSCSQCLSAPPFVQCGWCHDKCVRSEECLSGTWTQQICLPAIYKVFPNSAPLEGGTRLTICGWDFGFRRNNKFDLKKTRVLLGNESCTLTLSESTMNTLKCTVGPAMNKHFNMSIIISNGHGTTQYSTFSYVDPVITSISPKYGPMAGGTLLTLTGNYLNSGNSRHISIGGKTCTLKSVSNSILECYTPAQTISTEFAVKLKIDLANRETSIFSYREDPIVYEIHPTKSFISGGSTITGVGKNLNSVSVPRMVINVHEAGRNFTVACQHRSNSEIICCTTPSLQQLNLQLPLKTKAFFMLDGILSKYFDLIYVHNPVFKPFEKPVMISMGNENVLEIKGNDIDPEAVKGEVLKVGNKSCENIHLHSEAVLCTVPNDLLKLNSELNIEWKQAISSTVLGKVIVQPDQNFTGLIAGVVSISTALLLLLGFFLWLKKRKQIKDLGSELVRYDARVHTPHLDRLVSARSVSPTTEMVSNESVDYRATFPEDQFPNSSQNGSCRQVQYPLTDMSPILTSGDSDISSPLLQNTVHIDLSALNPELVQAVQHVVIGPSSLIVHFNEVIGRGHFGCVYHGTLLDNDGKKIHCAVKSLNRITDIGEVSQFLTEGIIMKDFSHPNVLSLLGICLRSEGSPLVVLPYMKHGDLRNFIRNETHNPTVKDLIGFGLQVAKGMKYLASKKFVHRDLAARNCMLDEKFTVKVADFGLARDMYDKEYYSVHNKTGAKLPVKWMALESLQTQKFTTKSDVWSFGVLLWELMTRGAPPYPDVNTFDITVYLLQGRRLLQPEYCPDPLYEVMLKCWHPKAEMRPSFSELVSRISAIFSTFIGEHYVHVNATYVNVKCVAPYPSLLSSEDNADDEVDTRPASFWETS
Chain of cMet-Fc fusion protein (P08581 25-307 limits assumed): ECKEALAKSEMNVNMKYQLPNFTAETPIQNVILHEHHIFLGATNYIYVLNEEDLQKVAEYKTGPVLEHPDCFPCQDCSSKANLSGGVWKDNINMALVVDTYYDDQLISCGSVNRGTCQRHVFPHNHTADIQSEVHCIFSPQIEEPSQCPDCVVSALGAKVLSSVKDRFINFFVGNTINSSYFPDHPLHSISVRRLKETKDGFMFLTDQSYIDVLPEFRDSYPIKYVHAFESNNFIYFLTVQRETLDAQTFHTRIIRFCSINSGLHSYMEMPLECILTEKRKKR
Chain of cMet-Fc fusion protein (P08581 with tags, fused parts or gaps limits assumed): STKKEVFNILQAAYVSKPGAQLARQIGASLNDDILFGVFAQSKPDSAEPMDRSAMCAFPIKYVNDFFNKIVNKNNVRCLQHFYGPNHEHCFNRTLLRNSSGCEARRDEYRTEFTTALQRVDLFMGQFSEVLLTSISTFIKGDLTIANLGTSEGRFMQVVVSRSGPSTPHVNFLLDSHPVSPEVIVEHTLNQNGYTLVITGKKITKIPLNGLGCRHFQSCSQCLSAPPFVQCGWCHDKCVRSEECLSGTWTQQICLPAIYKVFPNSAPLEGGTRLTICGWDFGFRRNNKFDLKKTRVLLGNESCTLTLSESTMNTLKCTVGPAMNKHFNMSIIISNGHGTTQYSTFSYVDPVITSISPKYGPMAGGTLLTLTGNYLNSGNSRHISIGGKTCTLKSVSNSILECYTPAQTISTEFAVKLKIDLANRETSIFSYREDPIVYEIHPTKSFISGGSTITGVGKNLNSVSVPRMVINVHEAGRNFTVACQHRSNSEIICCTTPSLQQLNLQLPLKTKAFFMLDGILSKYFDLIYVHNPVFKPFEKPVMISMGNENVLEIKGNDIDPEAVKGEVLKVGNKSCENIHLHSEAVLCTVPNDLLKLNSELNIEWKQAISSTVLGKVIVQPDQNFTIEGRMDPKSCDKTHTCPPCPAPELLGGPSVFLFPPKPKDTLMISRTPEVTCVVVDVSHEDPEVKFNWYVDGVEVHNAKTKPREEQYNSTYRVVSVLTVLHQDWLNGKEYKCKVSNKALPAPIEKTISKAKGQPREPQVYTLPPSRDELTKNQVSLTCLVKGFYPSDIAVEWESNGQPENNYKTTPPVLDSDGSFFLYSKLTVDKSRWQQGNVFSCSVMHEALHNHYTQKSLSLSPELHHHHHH

As for “AGHFECPKHQYMCDMPGT (Synthetically generated cMet-binding peptide sequence) [SEQ ID NO: 042]”, the “Protein ELISA” value in the test with cMet-Fc fusion protein was determined as 3.1 fold over background. In addition, in test [1], the “WC ELISA” value is 1.23 fold over background.

Take `CC(=O)N[C@@H](C)C(=O)N[C@@H](CCC(N)=O)C(=O)N[C@@H](Cc1c[nH]cn1)C(=O)N[C@@H](Cc1c[nH]c2ccccc12)C(=O)N[C@@H](CC(=O)O)C(=O)N[C@@H](Cc1ccc(O)cc1)C(=O)N[C@@H](CC(=O)O)C(=O)N[C@@H](CO)C(=O)NCC(=O)N[C@@H](CO)C(=O)N[C@@H](CC(=O)O)C(=O)N[C@@H](Cc1ccccc1)C(=O)N[C@@H](Cc1c[nH]c2ccccc12)C(=O)N[C@@H](Cc1ccccc1)C(=O)N1CCC[C@H]1C(=O)N[C@H](C(=O)N[C@@H](Cc1ccccc1)C(=O)N[C@@H](Cc1ccccc1)C(=O)N[C@@H](CC(C)C)C(=O)N[C@@H](CCC(=O)O)C(=O)N[C@@H](Cc1c[nH]cn1)C(=O)N[C@@H](Cc1c[nH]cn1)C(=O)NCC(=O)NCC(=O)NCC(=O)N[C@@H](CCCCNC(=O)c1ccc2c(c1)C(=O)OC21c2ccc(O)cc2Oc2cc(O)ccc21)C(N)=O)C(C)C` [SEQ ID NO: 475]: at cMet-Fc fusion protein, the “Protein ELISA” value worked out at 3.5 fold over background. For the same compound, the “WC ELISA” value in test [1] was 1.30 fold over background.

Regarding “AGSSPCKGWPTFECYFYGT (Synthetically generated cMet-binding peptide sequence) [SEQ ID NO: 087]”, in the test with cMet-Fc fusion protein, the “Protein ELISA” value is 4.8 fold over background. Also, in test [1], the “WC ELISA” value is given as 1.30 fold over background.

On to “AGDHYCWEEWWFCWDSGT (Synthetically generated cMet-binding peptide sequence) [SEQ ID NO: 021]”, for which, in the test with cMet-Fc fusion protein, the “Protein ELISA” value is 3.5 fold over background. For the same compound, the “WC ELISA” value in test [1] came out at 1.37 fold over background.

Consider “AGWFECEFGFWGCNWLGT (Synthetically generated cMet-binding peptide sequence) [SEQ ID NO: 018]”, for which the “Protein ELISA” value in the test with cMet-Fc fusion protein is listed as 3.9 fold over background. Besides, in test [1], the “WC ELISA” value amounted to 1.13 fold over background.

As for `CC[C@H](C)[C@H](NC(=O)[C@H](Cc1c[nH]c2ccccc12)NC(=O)[C@H](CC(N)=O)NC(=O)CNC(=O)[C@H](C)NC(C)=O)C(=O)N[C@H]1CSSC[C@@H](C(=O)N[C@@H](Cc2c[nH]c3ccccc23)C(=O)N[C@@H](Cc2ccc(O)cc2)C(=O)N[C@@H](Cc2c[nH]cn2)C(=O)NCC(=O)N[C@H](C(=O)NCC(=O)NCC(=O)NCC(=O)N[C@@H](CCCCNC(=O)c2ccc3c(c2)C(=O)OC32c3ccc(O)cc3Oc3cc(O)ccc32)C(N)=O)[C@@H](C)O)NC(=O)CNC(=O)[C@H](Cc2ccccc2)NC(=O)[C@H](CO)NC(=O)[C@@H]2CCCN2C(=O)[C@@H]2CCCN2C(=O)CNC(=O)[C@H]([C@@H](C)O)NC1=O` [SEQ ID NO: 078], the “Protein ELISA” value on cMet-Fc fusion protein is reported as 4.7 fold over background. Further, in test [1], the “WC ELISA” value is 1.40 fold over background.

Consider “GSEYSCRTSRCIFSAP (Synthetically generated cMet-binding peptide sequence) [SEQ ID NO: 006]”, for which the “Protein ELISA” value in the test with cMet-Fc fusion protein is recorded as 3.2 fold over background. Further, the “WC ELISA” value in test [1] amounted to 1.33 fold over background.

As to “GSFILCWWTFCDTNAP (Synthetically generated cMet-binding peptide sequence) [SEQ ID NO: 007]”, the “Protein ELISA” value with cMet-Fc fusion protein is recorded as 3.4 fold over background. In addition, in test [1], the “WC ELISA” value is listed as 1.30 fold over background.

In the case of “GDHRKCEISAKTHEVTCYDNDP (Synthetically generated cMet-binding peptide sequence) [SEQ ID NO: 402]”, in the test with cMet-Fc fusion protein, the “Protein ELISA” value was 5.2 fold over background. Also, the “WC ELISA” value in test [1] stood at 1.17 fold over background.

`CC[C@H](C)[C@H](NC(=O)[C@@H](NC(=O)[C@H](CCC(=O)O)NC(=O)CNC(=O)[C@H](Cc1c[nH]c2ccccc12)NC(=O)[C@H](Cc1c[nH]cn1)NC(=O)[C@@H](NC(=O)[C@H](CC(C)C)NC(=O)CNC(=O)[C@H](CC(=O)O)NC(=O)[C@H](Cc1c[nH]cn1)NC(=O)[C@@H]1CCCN1C(=O)[C@H](Cc1c[nH]c2ccccc12)NC(=O)[C@H](CCC(N)=O)NC(=O)[C@H](C)NC(C)=O)C(C)C)C(C)C)C(=O)N[C@@H](CCSC)C(=O)N[C@@H](CC(C)C)C(=O)N[C@@H](CCCNC(=N)N)C(=O)N[C@@H](Cc1ccccc1)C(=O)NCC(=O)NCC(=O)NCC(=O)N[C@@H](CCCCNC(=O)c1ccc2c(c1)C(=O)OC21c2ccc(O)cc2Oc2cc(O)ccc21)C(N)=O` [SEQ ID NO: 479]: the “Protein ELISA” value at cMet-Fc fusion protein worked out at 3.3 fold over background. Besides, in test [1], the “WC ELISA” value amounted to 1.37 fold over background.

Turning to “AGGHWCLELKHLCPPYGT (Synthetically generated cMet-binding peptide sequence) [SEQ ID NO: 044]”, the “Protein ELISA” value in the test with cMet-Fc fusion protein was determined as 4.1 fold over background. Moreover, the “WC ELISA” value in test [1] was 1.23 fold over background.

With “AGQFKCAGPPSFACWMTGT (Synthetically generated cMet-binding peptide sequence) [SEQ ID NO: 050]”, in the test with cMet-Fc fusion protein, the “Protein ELISA” value came to 14.8 fold over background. The “WC ELISA” value in test [1] was found to be 1.43 fold over background.

On to “AGAFFCSGPPTFMCSLYGT (Synthetically generated cMet-binding peptide sequence) [SEQ ID NO: 098]”, for which the “Protein ELISA” value with cMet-Fc fusion protein was 6.2 fold over background. Further, the “WC ELISA” value in test [1] amounted to 1.27 fold over background.

As for “AGWTWCDLSMMSCIFHGT (Synthetically generated cMet-binding peptide sequence) [SEQ ID NO: 025]”, the “Protein ELISA” value in the test with cMet-Fc fusion protein is 3.2 fold over background. For the same compound, the “WC ELISA” value in test [1] came out at 1.37 fold over background.

On to `CC[C@H](C)[C@H](NC(=O)CNC(=O)[C@H](Cc1ccccc1)NC(=O)[C@H](Cc1c[nH]c2ccccc12)NC(=O)[C@H](CO)NC(=O)CNC(=O)[C@H](Cc1c[nH]c2ccccc12)NC(=O)[C@H](Cc1ccccc1)NC(=O)CNC(=O)[C@H](CC(=O)O)NC(=O)[C@@H](NC(=O)[C@H](Cc1ccccc1)NC(=O)[C@H](Cc1ccc(O)cc1)NC(=O)[C@H](CCC(=O)O)NC(=O)[C@H](CCCNC(=N)N)NC(=O)[C@H](CCC(=O)O)NC(=O)[C@H](Cc1c[nH]c2ccccc12)NC(=O)[C@H](CCC(=O)O)NC(=O)[C@H](CCC(N)=O)NC(=O)[C@H](C)NC(C)=O)C(C)C)C(=O)N1CCC[C@H]1C(=O)N[C@@H](Cc1c[nH]cn1)C(=O)NCC(=O)NCC(=O)NCC(=O)N[C@@H](CCCCNC(=O)c1ccc2c(c1)C(=O)OC21c2ccc(O)cc2Oc2cc(O)ccc21)C(N)=O` [SEQ ID NO: 472], for which the “Protein ELISA” value at cMet-Fc fusion protein was determined as 3.7 fold over background. The “WC ELISA” value in test [1] is on record as 1.80 fold over background.

As for “AGYWSCAGPPMFMCTWQGT (Synthetically generated cMet-binding peptide sequence) [SEQ ID NO: 079]”, in the test with cMet-Fc fusion protein, the “Protein ELISA” value is reported as 10.7 fold over background. In addition, in test [1], the “WC ELISA” value worked out at 1.27 fold over background.

In the case of `CSCC[C@H](NC(=O)[C@H](CCCNC(=N)N)NC(=O)[C@H](Cc1c[nH]c2ccccc12)NC(=O)[C@H](CO)NC(=O)[C@H](CO)NC(=O)[C@H](CC(C)C)NC(=O)[C@H](Cc1ccccc1)NC(=O)[C@H](CC(=O)O)NC(=O)[C@H](CC(C)C)NC(=O)[C@H](Cc1ccc(O)cc1)NC(=O)[C@H](Cc1c[nH]c2ccccc12)NC(=O)[C@H](Cc1ccc(O)cc1)NC(=O)[C@@H]1CCCN1C(=O)[C@H](CCC(=O)O)NC(=O)[C@H](CCC(=O)O)NC(=O)[C@@H](NC(=O)[C@H](CCC(=O)O)NC(=O)[C@H](CCCNC(=N)N)NC(=O)[C@H](CCC(N)=O)NC(=O)[C@H](C)NC(C)=O)C(C)C)C(=O)N[C@@H](Cc1c[nH]cn1)C(=O)N[C@@H](CCC(=O)O)C(=O)NCC(=O)NCC(=O)NCC(=O)N[C@@H](CCCCNC(=O)c1ccc2c(c1)C(=O)OC21c2ccc(O)cc2Oc2cc(O)ccc21)C(N)=O` [SEQ ID NO: 451], the “Protein ELISA” value at cMet-Fc fusion protein is recorded as 8.2 fold over background. Moreover, the “WC ELISA” value in test [1] was found to be 1.33 fold over background.

With “AGWGWCSGPPMFMCTEYGT (Synthetically generated cMet-binding peptide sequence) [SEQ ID NO: 099]”, in the test with cMet-Fc fusion protein, the “Protein ELISA” value amounted to 4.0 fold over background. The “WC ELISA” value in test [1] is 1.30 fold over background.

Regarding “GSELFCFYHHQGYEGCDVLAP (Synthetically generated cMet-binding peptide sequence) [SEQ ID NO: 385]”, the “Protein ELISA” value with cMet-Fc fusion protein came out at 4.8 fold over background. Besides, the “WC ELISA” value in test [1] worked out at 1.27 fold over background.

Take “GSFAPCGWPSFAIDCIAEAP (Synthetically generated cMet-binding peptide sequence) [SEQ ID NO: 367]”: in the test with cMet-Fc fusion protein, the “Protein ELISA” value amounted to 7.7 fold over background. Moreover, the “WC ELISA” value in test [1] is recorded as 1.30 fold over background.

As to “AGKQWCVVWEETCDQLGT (Synthetically generated cMet-binding peptide sequence) [SEQ ID NO: 039]”, in the test with cMet-Fc fusion protein, the “Protein ELISA” value is listed as 3.7 fold over background. Further, the “WC ELISA” value in test [1] was 1.33 fold over background.

For the compound “AQMYQTPDGVIGKFVDWMFN (Synthetically generated cMet-binding peptide sequence) [SEQ ID NO: 455]”, the “Protein ELISA” value with cMet-Fc fusion protein stood at 8.0 fold over background. For the same compound, the “WC ELISA” value in test [1] is listed as 1.33 fold over background.

Turning to “GDLLGCGYQEKGGEYKCRFNDP (Synthetically generated cMet-binding peptide sequence) [SEQ ID NO: 395]”, the “Protein ELISA” value in the test with cMet-Fc fusion protein was found to be 13.5 fold over background. Moreover, the “WC ELISA” value in test [1] was 1.40 fold over background.

In the case of “AGDGWCMAWPEICEWLGT (Synthetically generated cMet-binding peptide sequence) [SEQ ID NO: 014]”, in the test with cMet-Fc fusion protein, the “Protein ELISA” value is 4.8 fold over background. For the same compound, the “WC ELISA” value in test [1] is 1.33 fold over background.
